Data published in the supplement of paper PMC9112550, “Optimization of the antimicrobial peptide Bac7 by deep mutational scanning” (BMC Biology, 2022).

System: Escherichia coli TOP10
Experiment: shrunken log2 fold change of peptide-encoding DNA abundance (4.5 h post-induction vs induction); higher = less antimicrobial activity (less host growth inhibition)
Settings: time post-induction: 4.5 h; library: site-saturation at positions 5, 18, 19, 20
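Further: peptides expressed intracellularly from a pBAD plasmid library in pooled LB shake-flask culture, induced with 0.3% L-arabinose, DNA abundance read by NGS, three biological replicates, DESeq2 with apeglm shrinkage.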

Point of comparison: RRIRNRPPRLPRPRPRPMMTPRP, “shrunken log2 fold change” value -0.312. Against it:
- RRIRDRPPRLPRPRPRPGLGPRP — higher, 0.208
- RRIRGRPPRLPRPRPRPTPNPRP — higher, 0.957
- RRIRGRPPRLPRPRPRPAMMPRP — higher, 0.51
- RRIRGRPPRLPRPRPRPIWTPRP — higher, 0.352
- RRIRKRPPRLPRPRPRPKHVPRP — higher, 0.473
- RRIRFRPPRLPRPRPRPTPSPRP — higher, 0.636
- RRIRFRPPRLPRPRPRPGPRPRP — higher, 0.618
- RRIRTRPPRLPRPRPRPNMMPRP — within 0.2 log units, -0.237
- RRIRRRPPRLPRPRPRPSVMPRP — higher, 0.157
- RRIRTRPPRLPRPRPRPSRYPRP — within 0.2 log units, -0.23
- RRIRERPPRLPRPRPRPLNEPRP — within 0.2 log units, -0.13
- RRIRYRPPRLPRPRPRPHMPPRP — within 0.2 log units, -0.38
- RRIRPRPPRLPRPRPRPYTTPRP — lower, -0.52
- RRIRFRPPRLPRPRPRPGSIPRP — within 0.2 log units, -0.235
- RRIRCRPPRLPRPRPRPRQHPRP — higher, -0.0138
- RRIRMRPPRLPRPRPRPQWSPRP — higher, 0.0117
- RRIRWRPPRLPRPRPRPEIKPRP — higher, -0.0674
- RRIRNRPPRLPRPRPRPCWAPRP — higher, -0.057
- RRIRARPPRLPRPRPRPPLCPRP — higher, 0.762
- RRIRHRPPRLPRPRPRPQVAPRP — higher, 0.0753
- RRIRFRPPRLPRPRPRPAQFPRP — higher, 0.156
- RRIRIRPPRLPRPRPRPLYIPRP — lower, -0.695
- RRIRKRPPRLPRPRPRPEEHPRP — higher, 2.61
- RRIRCRPPRLPRPRPRPSPWPRP — higher, 0.0328
- RRIRNRPPRLPRPRPRPDDKPRP — higher, -0.0189
- RRIRTRPPRLPRPRPRPRDSPRP — higher, 0.538
- RRIRGRPPRLPRPRPRPMLCPRP — higher, 0.558
- RRIRVRPPRLPRPRPRPTQHPRP — higher, 0.155
- RRIRWRPPRLPRPRPRPTRGPRP — higher, 0.329
- RRIRERPPRLPRPRPRPCEFPRP — within 0.2 log units, -0.283
- RRIRVRPPRLPRPRPRPQKHPRP — within 0.2 log units, -0.247
- RRIRERPPRLPRPRPRPWQSPRP — higher, -0.00865
- RRIRMRPPRLPRPRPRPHNPPRP — within 0.2 log units, -0.329
- RRIRGRPPRLPRPRPRPEWYPRP — higher, 0.243
- RRIRIRPPRLPRPRPRPCTGPRP — lower, -0.887
- RRIRVRPPRLPRPRPRPVVHPRP — higher, -0.0292
- RRIRGRPPRLPRPRPRPMKNPRP — higher, 0.68
- RRIRPRPPRLPRPRPRPVGPPRP — higher, 0.427
- RRIRLRPPRLPRPRPRPKWPPRP — higher, 0.279
- RRIRGRPPRLPRPRPRPNAAPRP — higher, 2.21
- RRIRRRPPRLPRPRPRPSHEPRP — within 0.2 log units, -0.252
- RRIRNRPPRLPRPRPRPETWPRP — higher, 0.0309
- RRIRQRPPRLPRPRPRPWLNPRP — higher, -0.0662
- RRIRPRPPRLPRPRPRPLYHPRP — lower, -0.514
- RRIRARPPRLPRPRPRPAPKPRP — higher, 1
- RRIRERPPRLPRPRPRPHWWPRP — higher, 0.193
- RRIRVRPPRLPRPRPRPDMIPRP — higher, -0.0118
- RRIRFRPPRLPRPRPRPWDKPRP — lower, -1.33
- RRIRQRPPRLPRPRPRPPFLPRP — higher, 0.186
- RRIRGRPPRLPRPRPRPLYEPRP — higher, 0.913
- RRIRKRPPRLPRPRPRPLDGPRP — higher, 0.105
- RRIRRRPPRLPRPRPRPQPHPRP — higher, 0.396
- RRIRARPPRLPRPRPRPFFLPRP — higher, -0.0057
- RRIRLRPPRLPRPRPRPPSIPRP — higher, -0.0597
- RRIRNRPPRLPRPRPRPLQWPRP — higher, 0.0683
- RRIRFRPPRLPRPRPRPLCMPRP — lower, -0.888
- RRIRHRPPRLPRPRPRPQRTPRP — within 0.2 log units, -0.145
- RRIRVRPPRLPRPRPRPRNMPRP — within 0.2 log units, -0.318
- RRIRNRPPRLPRPRPRPHDDPRP — higher, 0.008
- RRIRQRPPRLPRPRPRPLGQPRP — higher, 0.125
- RRIRERPPRLPRPRPRPPRHPRP — higher, 0.0414
- RRIRMRPPRLPRPRPRPRYWPRP — within 0.2 log units, -0.14
- RRIRIRPPRLPRPRPRPCPEPRP — lower, -0.644
- RRIRIRPPRLPRPRPRPTSYPRP — within 0.2 log units, -0.261
- RRIRGRPPRLPRPRPRPVVRPRP — higher, 0.602
- RRIRSRPPRLPRPRPRPDQAPRP — higher, -0.107
- RRIRHRPPRLPRPRPRPNDCPRP — higher, 0.000576
- RRIRSRPPRLPRPRPRPHVNPRP — within 0.2 log units, -0.259
- RRIRNRPPRLPRPRPRPLPWPRP — higher, 0.00924
- RRIRCRPPRLPRPRPRPYGDPRP — within 0.2 log units, -0.217
- RRIRDRPPRLPRPRPRPYWIPRP — within 0.2 log units, -0.296
- RRIRNRPPRLPRPRPRPKKAPRP — higher, -0.0485
- RRIRWRPPRLPRPRPRPFIQPRP — within 0.2 log units, -0.437
- RRIRLRPPRLPRPRPRPHCHPRP — lower, -0.727
- RRIRLRPPRLPRPRPRPNDNPRP — lower, -0.557
- RRIRERPPRLPRPRPRPALVPRP — higher, 0.193
- RRIRHRPPRLPRPRPRPCRHPRP — within 0.2 log units, -0.204
- RRIRFRPPRLPRPRPRPLRIPRP — higher, 0.00235
- RRIRDRPPRLPRPRPRPYKWPRP — lower, -0.595
- RRIRNRPPRLPRPRPRPNITPRP — lower, -0.693
- RRIRPRPPRLPRPRPRPTETPRP — higher, 0.132
- RRIRQRPPRLPRPRPRPPCVPRP — higher, 0.214
- RRIRDRPPRLPRPRPRPDKLPRP — higher, -0.0536
- RRIRERPPRLPRPRPRPVLDPRP — within 0.2 log units, -0.12
- RRIRQRPPRLPRPRPRPEWPPRP — higher, -0.0954
- RRIRIRPPRLPRPRPRPDTCPRP — higher, 0.0578
- RRIRHRPPRLPRPRPRPKGWPRP — higher, 0.103
- RRIRYRPPRLPRPRPRPYGPPRP — within 0.2 log units, -0.143
- RRIRLRPPRLPRPRPRPCKCPRP — higher, -0.0362
- RRIRWRPPRLPRPRPRPMAQPRP — higher, 0.218
- RRIRTRPPRLPRPRPRPLSLPRP — lower, -0.613
- RRIRIRPPRLPRPRPRPCFMPRP — within 0.2 log units, -0.378
- RRIRHRPPRLPRPRPRPKIHPRP — within 0.2 log units, -0.393
- RRIRGRPPRLPRPRPRPSWAPRP — higher, 0.532
- RRIRSRPPRLPRPRPRPYYDPRP — within 0.2 log units, -0.214
- RRIRMRPPRLPRPRPRPMEAPRP — higher, 0.0555
- RRIRERPPRLPRPRPRPPWCPRP — higher, 0.217
- RRIRGRPPRLPRPRPRPYHIPRP — higher, 0.158
- RRIRFRPPRLPRPRPRPWGMPRP — within 0.2 log units, -0.171
- RRIRNRPPRLPRPRPRPTRAPRP — higher, 0.683
- RRIRLRPPRLPRPRPRPVQNPRP — higher, 0.0224
- RRIRTRPPRLPRPRPRPSDRPRP — within 0.2 log units, -0.138
- RRIRSRPPRLPRPRPRPRIRPRP — higher, -0.0466
- RRIRGRPPRLPRPRPRPKVVPRP — higher, 0.12
- RRIRRRPPRLPRPRPRPRWAPRP — higher, 0.206
- RRIRHRPPRLPRPRPRPGFDPRP — higher, 0.105
- RRIRCRPPRLPRPRPRPVWEPRP — higher, 0.176
- RRIRFRPPRLPRPRPRPQCNPRP — lower, -0.531
